Experimental data from the DeepSol protein solubility set.

experiment: soluble on expression in E. coli; label from the status in PepcDB or PDB records

Sequence | soluble on expression in E. coli
SKRVNSCVKDEEHVLEELETEGERQLKSLLQHQLDTSVSIEECVSKKKSFAPGTMYKPFGKEAAGTMTLSQFQTLHEKDQETASLRELGLNETEILIWKSHVSGEKRTKLRATPEAIQKRLEDIKERISERQRILCLPQRFSKSKQLTRREMEIEKSLFQGTDRHSFLKALYYQDEPPKKNKGDPMNNLEHFYRETIMKKRLEEFQLLRGESFACHSLVSAASVSGSGTAEKPSLLQDKGKQAAQGKGPRLHVAKLIDFPTEQYWTGPKTLKQPIEFIPEDEIQRNRLSEEEIRNIPMFSSYNPGEPNKVLYLKNLSPRVKERDLISLFARFQEKKGPPIQFRMMTGRMRGQAFLTFPNKDIAWQALHQINGYKLYGKILVIEFAKSKKQQSAVQRSSLITSAPDGRTEINGS | soluble
RRIGKVNLRHNRGFLTPELKRNFLRYTLFYVVASIGSKLSSRLDLFMVSSLDKGGLDSGGIFSIAFYMVAVVEIPSRSLLSVSSPLMADAMKRNDLVKADELFKRVSLHQ | not soluble
VLPHARKVARETGIPEHFMIAQAALETGWGRHQIRRADNQPSFNLFGIKASGNWRGGVVETVTTEYVDGKPQKLREKFRTYDSYEDAFRDYAKLLQNNPRYAAVLKSRSATAFAWGLQQAGYATDPSYAEKLLKIINSDALSI | not soluble
MGSDKIHHHHHHMRSDVIKKGLERVPHRSLLKALGITDDEMRRPFIGIVSSWNEIIPGHVHLDKVVEAVKAGVRMAGGVPFVFPTIGICDGIAMDHRGMKFSLPSRELIADSIEIVASGFPFDGLVFVPNCDKITPGMMMAMGRLNIPSVLISGGPMLAGRYNGRDIDLITVFEAVGGYKVGKVDEETLKAIEDLACPGAGSCAGLFTANTMNSLAEALGIAPRGNGTVPAVHAKRLRMAKEAGMLVVELVKRDVKPRDIVTLDSFMNAVMVDLATGGSTNTVLHLKAIAESFGIDFDIKLFDELSRKIPHICNISPVGPYHIQDLDDAGGIYAVMKRLQENGLLKEDVMTIYLRKIGDLVREAKILNEDVIRPFDNPYHKEGGLGILFGNLAPEGAVAKLSGVPEKMMHHVGPAVVFEDGEEATKAILSGKIKKGDVVVIRYEGPKGGPGMREMLSPTSAIVGMGLAEDVALITDGRFSGGSHGAVIGHVSPEAAEGGPIGIVKDGDLIEIDFEKRTLNLLISDEEFERRMKEFTPLVKEVDSDYLRRYAFFVQSASKGAIFRKP | not soluble
MSENSENAPEKVEFTPIGYVENDYFKPEYKEEVYEKVSKIVLREDLVDGLYRVEELEKLYILFYFSKSEGYKLIHRRRYDGEMSGVFASRSPYRPNGIGLTLVELLKVEGNVLYVKGLDAINGTPVLDIKPYMKDLEEKEKENTKLEHHHHHH | soluble
MDLLKKEYTGITYISGPLLFVENAKDLAYGAIVDIKDGTGRVRGGQVIEVSEEYAVIQVFEETTGLDLATTSVSLVEDVARLGVSKEMLGRRFNGIGKPIDGLPPITPEKRLPITGLPLNPVARRKPEQFIQTGISTIDVMNTLVRGQKLPIFSGSGLPANEIAAQIARQATVRPDLSGEGEKEEPFAVVFAAMGITQRELSYFIQEFERTGALSRSVLFLNKADDPTIERILTPRMALTVAEYLAFEHDYHVLVILTDMTNYCEALREIGAAREEIPGRRGYPGYMYTDLATIYERAGVVEGKKGSVTQIPILSMPDDDRTHPIPDLTGYITEGQIQLSRELHRKGIYPPIDPLPSLSRLMNNGVGKGKTREDHKQVSDQLYSAYANGVDIRKLVAIIGEDALTENDRRYLQFADAFERFFINQGQQNRSIEESLQIAWALLSMLPQGELKRISKDHIGKYYGQKLEEIWGAPQALD | soluble
MESFRFDPAGNLLDNAPAPDGHQNDSLLGNLLSQYAGRHYRYDSRGNLVEKRVNGSLTRLEWDSHSRLSRLIAPDGQRTDYHYDPLGRRIAKISQGQATLYGWDGDVLAFETRDEEAVHYLFEPDSFVPLAQVHTDAIRGVKVPAWSQHHPYDPDKDPLRQPAPEPEAPKAVYYYHTDHLGTPQALTDEQGLLALEMDYQAWGQAREVIADAAGKAGIRNPFRFQGQYHDDESGLHYNRHRYYDPEIGRFISRDPIGLKGGYNLFAYAPNTIEWVDPFGLTKLRETDPKARSLSNVQTRCWYLREESKIGYQIDCTKPIKQQARQAARLRNEARIRARLLMADREKAIALHQSDPNLTFKELMALKENKKGLTGKDAYQDIVDSASKSRQSVNKALLEGVDCDKVLEGILEHHHHHH | soluble
MAKKKNVSVISVEKPTWFPLTDETGAFPVYGAPITIGTAVSIKPDVTTETTPDYGDSVVQDQYVAFGGAEVTLETNGYQNEVLAEITGGKKLKGGVLRSADDIASDGAFAYRRRKSNGKYRYTIFYKGKFALTSDETSTLEGSSVSYTHPEWTGSFVDVPGLGYMYSVDEDDEGVDLEMIKNWFTEVMDPRKENTTAVTGVTLDQTELNLKVGQTATLTPTITPDNASNKKYQFRSESEAIGTVTPIQGKVTAVGEGTTEIVVTTEDGNFTAKCTLNVTTAD | not soluble
MVELLAPARDLSGLITAFNNGADSVYCGLKEMSMRATAKNFERNELIEGINFAHDADKRVYLCTNTVVYEDDILNLNEILEFAKSAEVDAIIVNDIGAMVTAKELGLEVHVSVQNNITNSKTAEFFSKFAKRVVLSRELTLNQIKRIKENLKVNKVDLELEGFIHGALCTAMSGRCYLSSYLFNRNANCGDCLQPCRRSWKLVNEHADGTHELISEGKYLLSPKDLCMIEHIPEMIDVFDCFKIEGRAKNVDYVMRATKTYREAIDSVVDGTYEEKLPIFKKELDKIYNREYDTGFYFRDLTCNHDLQYEFEGNVSPYKKIEVGKVVNYFKKVDVAEITLIDDLKVGDSVLIIGPTTGCIEEKIESMQVEGENITTAKKGQNVGIKLENLVRENDKVYILKED | not soluble
MAHHHHHHMRMRPFTASTAATPTAAGAAPASSMSSPAPLRKARESATGSAGSYFLGSSTFSVYEEMARQLREEGWRRKTEAAIATADFILGDRFRIPYTLLRVERMARSSWFGGTRWVNYFEGSHRLTLKAAMVQLMKEVDTHWATWLPESYAVGGDQLKKADERRALLEALAAAGDDDAVWIVKPSSGAKGRHILLLRASAVPEWLERLPESSKSMYVVQRYVDRPLLLSNGRKFDIRVWALLVSPYSIYAYTQVSCRTASEPYDLSDITNTHVHLTNHCLQKDAAHFGEYEEENEMWLPQLQSYLTSIGKPADLLETRVLPAIKELLVRTLLAVMPEMAVPATEAYKCFQLFGYDMILTEEADVRLLEINGSPGVAERFLTPLVRSMRELLGAGPKDGTGSTTTTRNCDNTSHEGFSENGSSSNSGCASPTSASSSCPGRRRTSHAFSAATSATGATRNWRLEDEGFVLLWRRGDAVPPGLVDVC | not soluble
MDLLFGRRKTPEELLRQNQRALNRAMRELDRERQKLETQEKKIIADIKKMAKQGQMDAVRIMAKDLVRTRRYVRKFVLMRANIQAVSLKIQTLKSNNSMAQAMKGVTKAMGTMNRQLKLPQIQKIMMEFERQAEIMDMKEEMMNDAIDDAMGDEEDEEESDAVVSQVLDELGLSLTDELSNLPSTGGSLSVAAGGKKAEAAASALADADADLEERLKNLRRD | soluble
MPLMPQPTLMPLLQSPSPQHQHQQQQQHRAIGYPQRTLLPQQKQPQQQQPLAYLTSNFNPQQSSVASFNSSPAFTTISDFDQDFDQDYSNCPSLTASPVSTYSLPAYSSTSQQGSSLSAFDSIPNTTTVPRAAQGAAEPLFNLWADPMQTETWLQPADQLTSKSAGRYGHHRESSLSSLGSAGPASPYSNNTSNPQIAVTDFNDFSGFEDLNYHLVPSKASATLHPSFPGYANSNAVPINGYSRAPAVSKQNNNKSFRQEQSVGSNKPRPAPVASSIMSDSSATPAGEAEVAGRQKNGESQENRDLPDRDQSLPFDDVAINNNAPPKFDRTLTDIMNDELYHPDLVITTSAPAPQQTLTTSNNNFNKVVETANQHLSAMQSPASSNSSPFRQGSPHSATLHDFSSLNMASPQVRLGSAQQMRENSKAVQDAAWQQSLARHNQDMTPKTISPKDALLDYHEPEGESNFPLFPQPDNHGFNSDAMSKALSHQSLDGLPNLGDMSTFNFNFSPSNLDSMPTFNGLQQLPQTLQQYSFVNQPRQPSTVPSLATSRMSSAETGITDSPRSNAVQRPVDTRAEGGTYTCTYHGCPLRFDTPQLLQKHKREGHRQAHGLNSRQPNGMTSTRVDTQAGPHRCERINPSTGKPCNQIFSRPYDLTRHEDTIHNARKKKVRCEICTDEKTFSRADALTRHFRVCHPDVPFNGGKQRKARAGRSG | not soluble
MYVQLSQRLKDVATYVPKGAKLLDVGSDHAYLPIYLLEKGLITSAIAGEVVKGPYESALANVSASGFNDKIDVRLANGLAAFEPYDAVTTITICGMGGRLIADILDAGKDKLKDVDRLILQPNNREDDLRIWLMENGFTIVAEAIMTEN | not soluble
MAHHHHHHMYAGFPRLNVTEAQETVDLDFELTNEKGCVKVTEFPVPKVVNLSFPAVCALLYNARTATSSRNIFGSVIGLQLQDTVEVTDVKTNPSIDIEEDDRMTEEERMERVRKERKLLDADKAIFENMYNQENLDTNVIGQFVVSSARFNPFSTRTMRKLQELHRESLPAILLTYDPFRTGLLGRPHIRAYTPTAAYYKYDSLVSTERGYQRRRSLAQYAKESGITKEGVLHEIPVKLEVDAFHKLNLMNVPPTAVGDSFKAIQSMAVSNYIEALLSSIRNNTDQLKQKLDYEGNVKDNGNVPVGQDAETMLLMKHVRDQTDHLDALCDSALLYSSLLRDL | soluble
MSLYLMPKQDEIALLKQEEETVKATLRIKANKVAVLPQIQAQLDELKERYDFLLRQLPVQKELASMLASVNQLGLDSSLTFTRIDWGERESQEFLYRLPLNIELTGSYHDIGDFSQAIAKLPRIINFDDVDWQRVSQESSTLHFRVRAYTYQFKQEVDDEKEGHHHHHH | not soluble
MGHHHHHHSHIELVCWYMVDRDSIDDEPVDIAFIEGSVSTEEEVELVKKIRENSKIVVAVGACAVQGGVQSWTDKSLEELWRTVYGDAKVKFKPKKAEPVSKYIKVDYNIYGCPPEKRDFLYALGTFL | not soluble
MTTIVPTSEENPFLAVVRFTSQLAWADAGPEAAEPEITRLCREAEESMVAEKWLELSSLMVTSAELVSSKISEKDLECTYTIICSIVKNAKSPEQVLEMVKAIASKVAQQPSDKASLRLKILFNLYNLVDHPYARFQVYMKALTLAVDGKVTEYIVSSFKKIDNFLKEWNIDIKDQRELFLAIANVLKENKSLVNESLKFLTKYLATFSNEDAQVLDEAKEEAVRAVIEFVKASSIFQCDLLDLPAVAQLEKDAKYAPVYQLLKIFLTQRLNAYTEFQNANSGFLQSYGLSNEDCVTKMRLLSLVDLASDESGKIPYTSIKDTLQVNEQDVELWIVKAITAKLIESALPNVNLGQSNGNLSEQSLRLGSIITTIESNKVTEEGSQASSSSAAAIQGLSVR | soluble
MTNPVDVNLINGIALAFEGDAVYSYYVRRHLIFQGKTKPSQLHRLATRYVSAKAQANLIQAMLEAQLLTEKEEDIYKRGRNTNSHTKAKNADIITYRMSTGFEAIMGYLDMMGQKERLEELIRWCIEYVEKQQLISSLEHHHHHH | soluble
MKISLSTSLFSIEQKVEYFNLNYQSLSDFSVVAKLNYTFTWYGNDFSIGFAPKKGEKLYFDLFFTFKASPNHPFAAENFKPDSEAIDFYVSFSWRLEGKDEVSKKLFELSVFGRARAFQIDDYKINLFSYLVYVIR | soluble
MPPITQQATVTAWLPQVDASQITGTISSLESFTNRFYTTTSGAQASDWIASEWQALSASLPNASVKQVSHSGYNQKSVVMTITGSEAPDEWIVIGGHLDSTIGSHTNEQSVAPGADDDASGIAAVTEVIRVLSENNFQPKRSIAFMAYAAEEVGLRGSQDLANQYKSEGKNVVSALQLDMTNYKGSAQDVVFITDYTDSNFTQYLTQLMDEYLPSLTYGFDTCGYACSDHASWHNAGYPAAMPFESKFNDYNPRIHTTQDTLANSDPTGSHAKKFTQLGLAYAIEMGSATGDTPTPGNQ | soluble
